T1: Activin A (human, UniProt P08476 311-426)
T1 construct: Homodimer of two βA subunits; bought from R&D Systems (#338-AC); also called inhibin-βA dimer; human Activin A
T1 sequence: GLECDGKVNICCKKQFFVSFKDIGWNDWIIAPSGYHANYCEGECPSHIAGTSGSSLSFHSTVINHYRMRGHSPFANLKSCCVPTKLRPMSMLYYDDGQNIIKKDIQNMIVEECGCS

T2: Activin B (human, UniProt P09529 293-407)
T2 construct: Homodimer of two βB subunits; R&D Systems #659-AB
T2 chain: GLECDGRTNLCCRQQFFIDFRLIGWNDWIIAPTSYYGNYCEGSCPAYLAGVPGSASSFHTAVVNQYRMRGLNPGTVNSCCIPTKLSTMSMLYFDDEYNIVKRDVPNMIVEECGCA

B1: H4H10430P (antibody, human IgG4, V domains shown)
VH: EVQLVESGGGLVQPGRSLRLSCKASGFAFDDFAMHWVRQAPGKGLEWVSGIVWNSGDIGYADSVKGRFTISRDNAKNSLYLQLNSLRTEDTALYFCVKDMVRGLMGFNYYGMDVWGQGTTVTVSS
VL: EIVLTQSPATLSLSPGERATLSCRASQTISTYLVWYRQRPGQAPSLLIYDASNRATDIPARFSGSGSGTDFTLTISSLEPEDFAVYYCQQRSNWPITFGQGTRLEIK
notes: also called H4H1430P; H4H10430P2
B2: H4H10440P2 (antibody, human IgG4, V domains shown)
VH: EVQLVESGGGVVQPGGSLRLSCAASTFTFDDFAMHWVRQAPGKGLEWVSLITGDGGSTYYADPVKGRFTISRDNSKNSLYLQMNSLRTEDTALYYCVKDWWIAARPDYYYYGMDVWGQGTTVTVSS
VL: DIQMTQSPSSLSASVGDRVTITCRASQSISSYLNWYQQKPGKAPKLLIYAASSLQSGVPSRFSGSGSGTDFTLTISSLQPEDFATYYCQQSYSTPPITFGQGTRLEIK
B3: H4H10429P (antibody, human IgG4, V domains shown)
VH: QVQLVESGGGVVQPGRSLRLSCVASGFTVSSYGIHWVRQAPGKGLEWVSVIWYDGRNKDYADSVKGRFTISRDNSKNTVYLEMKGLRAEDTALYYCARDKTGDFDSWGQGTLVTVSS
VL: DIQMTQSPSSLSASVGDRVTITCRASQNINSFLSWYQQKPGKAPKFLIYDASSIQSGAPSRFSGSGSGTDFTLTISSLQPEDFATYYCQQSYSSPFTFGQGTKLEIK
B4: H4H10432P2 (antibody, human IgG4, V domains shown)
VH: EVQLVESGGGLVQPGRSLTLSCAVSGFTFDDHAMHWVRQAPGKGLEWVSGISWNSVSIGYADSVKGRFTISRDNAKTSLYLQMNSLRVDDTALYYCVQDLNDILTGYPLFDFWGQGTLVTVSS
VL: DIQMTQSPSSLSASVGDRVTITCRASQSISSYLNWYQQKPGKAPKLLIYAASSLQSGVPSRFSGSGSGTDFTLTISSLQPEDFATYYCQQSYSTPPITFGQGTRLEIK

molecular target: T1, Activin A; experiment: Octet cross-competition; binder on anti-hFc tip; 50 nM hActivin A pre-bound with 1 uM H4H10432P2 (col 7); black box
Procedure: (§1) No. 8,309,082) and Control 3 (MAB3381, available from R&D Systems, Inc., Minneapolis, Minn.) were also included in the assays. All assays were performed at 25° C. with a microtiter plate shaking rate of 1000 rpm in Octet HBST buffer (0.01 M HEPES pH7.4, 0.15M NaCl, 3 mM EDTA, 0.05% v/v Surfactant P20, 0.1 mg/mL BSA) according to manufacturer's instructions (ForteBio Corp., Menlo Park, Calif.). […] Any remaining anti-hFc binding sites on the tips were blocked by incubating the tips in a 50 ug/mL solution of irrelevant antibody for 5 minutes.

| Binder | binding response |
| --- | --- |
| B1 | 0.26 |
| B2 | 0.27 |
| B3 | 0.26 |

molecular target: T1, Activin A; experiment: Octet cross-competition; binder on anti-hFc tip; 50 nM hActivin A pre-bound with 1 uM H4H10440P2 (col 9); black box
Procedure: as §1

| Binder | binding response |
| --- | --- |
| B4 | 0.27 |
| B1 | 0.31 |
| B3 | 0.29 |

molecular target: T1, Activin A; experiment: Octet cross-competition; binder on anti-hFc tip; 50 nM hActivin A pre-bound with 1 uM H4H10442P2 (col 3); white box
Procedure: as §1

| Binder | binding response |
| --- | --- |
| B4 | 1.63 |
| B1 | 1.76 |
| B2 | 1.4 |
| B3 | 1.4 |

molecular target: T1, Activin A; experiment: Octet cross-competition; binder on anti-hFc tip; 50 nM hActivin A pre-bound with 1 uM Control 3 (col 11); black box
Procedure: as §1

| Binder | binding response |
| --- | --- |
| B4 | -0.05 |
| B1 | -0.03 |
| B2 | -0.05 |
| B3 | -0.01 |

molecular target: T1, Activin A; experiment: SPR, captured mAb, 25C; no dissociation observed, kd fixed
Procedure: (§2) Antibody-antigen association was monitored for 240 seconds while dissociation in buffer was monitored for 600 seconds. Kinetic association and dissociation rate constants were determined by processing and fitting the data using Scrubber software version 2.0c. Binding equilibrium dissociation constants (KD) and dissociative half-lives (t_{1/2}) were then calculated from the kinetic rate constants as: KD (M)=kd/kₐ and t_{1/2} (min)=[ln 2/(60*kd)]. (NB=no binding observed under the conditions used; NT=not tested).

| Binder | koff [s⁻¹] |
| --- | --- |
| B4 | ≤ 5e-05 |

molecular target: T1, Activin A; experiment: Octet cross-competition; binder on anti-hFc tip; 50 nM hActivin A pre-bound with 1 uM H4H10423P (col 4); black box
Procedure: as §1

| Binder | binding response |
| --- | --- |
| B1 | 0.33 |

Molecular target: T2, Activin B
Experiment: SPR, captured mAb, 37C
Method in brief: (§3)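 240 s association, 600 s buffer dissociation; ka, kd fitted; KD (M) = kd/ka; t1/2 (min) = ln2/(60*kd).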

| Binder | 50 nM Ag Bound (RU) | binding result | Kd [pM] | koff [s⁻¹] | kon [M⁻¹ s⁻¹] | t1/2 [min] |
| --- | --- | --- | --- | --- | --- | --- |
| B4 | 5.1 | – | – | – | – | – |
| B1 | 3.6 | no binding (tested: 50 nM) | – | – | – | – |
| B2 | 20.9 | – | 3290 | 0.00419 | 1.28e+06 | 2.8 |
| B3 | 25.3 | – | 9980 | 0.0343 | 3.43e+06 | 0.3 |

molecular target: T1, Activin A; experiment: SPR, captured mAb, 37C
Method in brief: as §3

| Binder | Activin A-20 nM (RU) | Kd [pM] | kon [M⁻¹ s⁻¹] | t1/2 [h] | koff [s⁻¹] |
| --- | --- | --- | --- | --- | --- |
| B4 | 25.1 | ≤ 2.18 | 2.3e+07 | ≥ 3.85 | – |
| B1 | 25 | 3.97 | 3.8e+07 | 1.27 | 0.000151 |
| B2 | 15.3 | 51.5 | 6.37e+06 | 0.587 | 0.000328 |
| B3 | 31.4 | ≤ 3.75 | 1.33e+07 | ≥ 3.85 | – |

molecular target: T1, Activin A; experiment: Octet cross-competition; binder on anti-hFc tip; 50 nM hActivin A mixed with 1 uM Isotype control 13 (-) (col 13); dark grey box
Procedure: as §1

| Binder | binding response |
| --- | --- |
| B4 | 0.11 |
| B1 | 0.27 |
| B2 | 0.11 |
| B3 | 0.24 |

Molecular target: T2, Activin B
Experiment: SPR, captured mAb, 25C
Method in brief: as §3

| Binder | 50 nM Ag Bound (RU) | binding result | Kd [pM] | koff [s⁻¹] | kon [M⁻¹ s⁻¹] | t1/2 [h] |
| --- | --- | --- | --- | --- | --- | --- |
| B4 | 5.1 | no binding (tested: 50 nM) | – | – | – | – |
| B1 | 3.9 | – | – | – | – | – |
| B2 | 18.8 | – | 1090 | 0.00116 | 1.06e+06 | 0.167 |
| B3 | 26.4 | – | 3750 | 0.0131 | 3.49e+06 | 0.015 |

molecular target: T1, Activin A; experiment: SPR, captured mAb, 25C
Method in brief: as §3

| Binder | Activin A-20 nM (RU) | Kd [pM] | kon [M⁻¹ s⁻¹] | t1/2 [h] | koff [s⁻¹] |
| --- | --- | --- | --- | --- | --- |
| B4 | 20.7 | ≤ 3.18 | 1.57e+07 | ≥ 3.85 | – |
| B1 | 19.4 | 3.52 | 4.75e+07 | 1.15 | 0.000167 |
| B2 | 12.9 | 24.7 | 3.76e+06 | 2.08 | 9.28e-05 |
| B3 | 24.9 | 8.17 | 7.82e+06 | 3.01 | 6.39e-05 |

molecular target: T1, Activin A; experiment: SPR, captured mAb, 37C; no dissociation observed, kd fixed
Procedure: as §2

| Binder | koff [s⁻¹] |
| --- | --- |
| B4 | ≤ 5e-05 |
| B3 | ≤ 5e-05 |

molecular target: T1, Activin A; experiment: Octet cross-competition; binder on anti-hFc tip; 50 nM hActivin A pre-bound with 1 uM H4H10429P (col 6); black box
Procedure: as §1

| Binder | binding response |
| --- | --- |
| B4 | 0.32 |
| B1 | 0.62 |
| B2 | 0.41 |

molecular target: T1, Activin A; experiment: Octet cross-competition; binder on anti-hFc tip; 50 nM hActivin A pre-bound with 1 uM H4H10430P (col 5); black box
Procedure: as §1

| Binder | binding response |
| --- | --- |
| B4 | 0.28 |
| B2 | 0.29 |
| B3 | 0.65 |

molecular target: T1, Activin A; experiment: Octet cross-competition; binder on anti-hFc tip; 50 nM hActivin A pre-bound with 1 uM H4H10436P2 (col 8); black box
Procedure: as §1

| Binder | binding response |
| --- | --- |
| B4 | 0.29 |
| B1 | 0.31 |
| B2 | 0.32 |
| B3 | 0.34 |

molecular target: T1, Activin A; experiment: Octet cross-competition; binder on anti-hFc tip; 50 nM hActivin A pre-bound with 1 uM H4H10423P (col 4); white box
Procedure: as §1

| Binder | binding response |
| --- | --- |
| B4 | 1.32 |
| B2 | 1.22 |
| B3 | 1.39 |

molecular target: T1, Activin A; experiment: Octet cross-competition; binder on anti-hFc tip; 50 nM hActivin A pre-bound with 1 uM H4H10468P2 (col 2); white box
Procedure: as §1

| Binder | binding response |
| --- | --- |
| B4 | 1.58 |
| B1 | 1.84 |
| B2 | 1.37 |
| B3 | 1.37 |

molecular target: T1, Activin A; experiment: Octet cross-competition; binder on anti-hFc tip; 50 nM hActivin A mixed with 1 uM Isotype control 12 (-) (col 12); dark grey box
Procedure: as §1

| Binder | binding response |
| --- | --- |
| B4 | 0.3 |
| B1 | 0.49 |
| B2 | 0.28 |
| B3 | 0.39 |

molecular target: T1, Activin A; experiment: Octet cross-competition; binder on anti-hFc tip; 50 nM hActivin A pre-bound with 1 uM H4H10446P2 (col 1); white box
Procedure: as §1

| Binder | binding response |
| --- | --- |
| B4 | 1.36 |
| B1 | 1.55 |
| B2 | 1.17 |
| B3 | 1.24 |

molecular target: T1, Activin A; experiment: Octet cross-competition; binder on anti-hFc tip; 50 nM hActivin A pre-bound with 1 uM Control 1 (col 10); black box
Procedure: as §1

| Binder | binding response |
| --- | --- |
| B4 | 0.15 |
| B1 | 0.2 |
| B2 | 0.13 |
| B3 | 0.16 |
